From patent publication US12679878B2, “CRF2 receptor agonists and their use in therapy” (SANOFI, priority 2020, dated 2026)
Each block holds one molecule with its values, some of them ahead of it. Starred links: 1 amine or outer side, 2 acyl side, 3 side chain; linkers in the order of their positions; H or OH if unused. Non-standard residues stand in square brackets, D forms with d. Residues, ends and D or L forms follow the SMILES beside them. Groups on a side chain read outwards from the residue. *: point of attachment. C18 diacid = O=C(O)CCCCCCCCCCCCCCCCC(=O)*; γGlu = O=C(O)[C@H](CCC(=O)[*:2])N[*:1]; AEEA = NCCOCCOCC(=O)O; Aib = CC(C)(N)C(=O)O

What was measured:
rat CRF2R α receptor [1] = assay: cAMP agonism at rat CRF2R α receptor in A7R5 rat aortic smooth muscle cells (Example 8); type: cell-based; conditions: cAMP HTRF, A7R5 rat aortic smooth muscle cell line, 0% HSA
Protocol: Cells were grown in a T175 culture flask placed at 37° C. to near confluence in medium (DMEM/10% FBS) and collected in 2 ml vials in cell culture medium containing 10% DMSO in a concentration of 10-50 million cells/ml. Each vial contained 1.8 ml cells. The vials were slowly frozen to −80° C. in isopropanol and then transferred in liquid nitrogen for storage. Prior to use, frozen cells were thawed quickly at 37° C. and washed (5 min at 900 rpm) with 20 ml cell buffer (1×HBSS; 20 mM HEPES; 0% or 0.1% HSA). Cells were resuspended in assay buffer (cell buffer plus 2 mM IBMX) and adjusted to a cell density of 1 million cells/ml. For measurement, 5 μl cells (final […]) and 5 μL of test compound were added to a 384-well plate, followed by incubation for 30 minutes at room temperature.
The CAMP content of cells was determined using a kit from Cisbio Corp. (cat. no. 62AM4PEC) based on HTRF (Homogenous Time Resolved Fluorescence). After addition of HTRF reagents diluted in lysis buffer (kit components), the plates were incubated for 1 h, followed by measurement of the fluorescence ratio at 665/620 nm. The percent activity value (E %) was calculated by setting 1000 nM of urocortin 2 (UCN2) as 100%. The in vitro potency of the compounds was quantified by determining the concentrations that caused 50% activation of maximal response (EC50).
Using the procedure described in Example 7, the activity of the compounds at the rat CRF2R α receptor was assessed. The A7R5 rat aortic smooth muscle cell line was used in this study.

rat CRF2R α receptor [2] = target: rat CRF2R α receptor (rat, UniProt P47866 20-411); assay: cell-based or functional assay
Sequence of rat CRF2R α receptor (rat, UniProt P47866 20-411) (P47866 20-411): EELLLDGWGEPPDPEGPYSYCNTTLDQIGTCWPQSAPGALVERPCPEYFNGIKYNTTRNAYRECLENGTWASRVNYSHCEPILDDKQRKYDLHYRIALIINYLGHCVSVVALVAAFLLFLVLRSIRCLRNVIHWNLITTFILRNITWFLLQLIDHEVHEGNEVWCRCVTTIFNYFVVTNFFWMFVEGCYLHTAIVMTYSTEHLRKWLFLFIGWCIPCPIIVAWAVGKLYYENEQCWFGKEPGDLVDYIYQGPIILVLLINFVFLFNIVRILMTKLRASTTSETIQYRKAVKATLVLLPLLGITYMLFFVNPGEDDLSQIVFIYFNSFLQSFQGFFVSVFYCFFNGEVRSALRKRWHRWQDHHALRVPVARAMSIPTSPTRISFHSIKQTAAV

[3] = target: T1, anti-target CRF1R receptor (UniProt P34998 24-415, limits assumed); assay: cell-based or functional assay
T1 sequence (looked up): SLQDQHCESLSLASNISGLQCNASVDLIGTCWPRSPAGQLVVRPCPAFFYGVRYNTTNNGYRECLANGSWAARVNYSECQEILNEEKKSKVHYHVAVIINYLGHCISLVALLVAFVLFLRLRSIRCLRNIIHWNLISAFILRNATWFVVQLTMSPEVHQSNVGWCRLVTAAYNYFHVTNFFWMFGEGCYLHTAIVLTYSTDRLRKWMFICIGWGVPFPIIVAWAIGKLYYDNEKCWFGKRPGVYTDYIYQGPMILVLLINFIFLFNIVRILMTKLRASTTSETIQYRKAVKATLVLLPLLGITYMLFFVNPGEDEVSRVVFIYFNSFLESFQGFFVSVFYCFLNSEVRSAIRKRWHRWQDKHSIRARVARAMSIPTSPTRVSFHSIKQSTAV

EC50 (rat CRF2R α receptor [1]): 48.6 nM
Molecule: CC[C@H](C)[C@H](NC(C)=O)C(=O)N[C@H](C(=O)N[C@@H](CC(C)C)C(=O)N[C@@H](CO)C(=O)N[C@@H](CC(C)C)C(=O)N[C@@H](CC(=O)O)C(=O)N[C@@H](C(=O)N1CCC[C@H]1C(=O)N[C@H](C(=O)N[C@@H](CCC(=O)O)C(=O)N[C@@H](CC(C)C)C(=O)N[C@@H](CCCCNC(=O)COCCOCCNC(=O)COCCOCCNC(=O)CC[C@H](NC(=O)CCCCCCCCCCCCCCCCC(=O)O)C(=O)O)C(=O)N[C@@H](CCC(N)=O)C(=O)N[C@H](C(=O)N[C@@H](CC(C)C)C(=O)N[C@@H](CC(C)C)C(=O)N[C@@H](CCC(=O)O)C(=O)N[C@@H](CCC(N)=O)C(=O)N[C@@H](CCC(=O)O)C(=O)N[C@@H](CCCNC(=N)N)C(=O)N[C@@H](CCC(N)=O)C(=O)N[C@@H](CCCCN)C(=O)NC(C)(C)C(=O)N[C@@H](CCC(N)=O)C(=O)N[C@@H](CCCNC(=N)N)C(=O)N[C@@H](CCC(=O)O)C(=O)N[C@@H](CCC(N)=O)C(=O)N[C@@H](C)C(=O)N[C@@H](CCC(=O)O)C(=O)N[C@@H](CCCCN)C(=O)N[C@@H](CC(N)=O)C(=O)N[C@@H](CCCCN)C(=O)N[C@@H](CCC(N)=O)C(=O)N[C@H](C(=O)N[C@@H](CC(C)C)C(=O)N[C@@H](CCC(=O)O)C(=O)N[C@@H](CCC(N)=O)C(=O)N[C@H](C(N)=O)C(C)C)[C@@H](C)CC)[C@@H](C)CC)[C@@H](C)CC)C(C)C)C(C)C [compound 162] (Ac-IVLSLD[dV]PIELK([AEEA-AEEA-γGlu-C18 diacid])QILLEQERQK[Aib]QREQAEKNKQILEQV-NH2)

EC50 (rat CRF2R α receptor [1]): 1.5 nM
Molecule: CC[C@H](C)[C@H](N)C(=O)N[C@H](C(=O)N[C@@H](CC(C)C)C(=O)N[C@@H](CO)C(=O)N[C@@H](CC(C)C)C(=O)N[C@@H](CC(=O)O)C(=O)N[C@@H](C(=O)N1CCC[C@H]1C(=O)N[C@H](C(=O)N[C@@H](Cc1c[nH]cn1)C(=O)N[C@@H](CC(C)C)C(=O)N[C@@H](CCCCNC(=O)COCCOCCNC(=O)COCCOCCNC(=O)CC[C@H](NC(=O)CCCCCCCCCCCCCCCCC(=O)O)C(=O)O)C(=O)N[C@@H](CCC(N)=O)C(=O)N[C@H](C(=O)N[C@@H](CC(C)C)C(=O)N[C@@H](CC(C)C)C(=O)N[C@@H](CCC(=O)O)C(=O)N[C@@H](CCC(N)=O)C(=O)N[C@@H](CCC(=O)O)C(=O)N[C@@H](CCCNC(=N)N)C(=O)N[C@@H](CCC(N)=O)C(=O)N[C@@H](CCCCN)C(=O)NC(C)(C)C(=O)N[C@@H](CCC(N)=O)C(=O)N[C@@H](CCCNC(=N)N)C(=O)N[C@@H](CCC(=O)O)C(=O)N[C@@H](CCC(N)=O)C(=O)N[C@@H](C)C(=O)N[C@@H](CCC(=O)O)C(=O)N[C@@H](CCCCN)C(=O)N[C@@H](CC(N)=O)C(=O)N[C@@H](CCCCN)C(=O)N[C@@H](CCC(N)=O)C(=O)N[C@H](C(=O)N[C@@H](CC(C)C)C(=O)N[C@@H](CCC(=O)O)C(=O)N[C@@H](CCC(N)=O)C(=O)N[C@H](C(N)=O)C(C)C)[C@@H](C)CC)[C@@H](C)CC)[C@@H](C)CC)C(C)C)C(C)C [compound 163] (H-IVLSLD[dV]PIHLK([AEEA-AEEA-γGlu-C18 diacid])QILLEQERQK[Aib]QREQAEKNKQILEQV-NH2; N-terminus assumed)

EC50 [nM], 0% HSA (cAMP, A7R5 cells) (rat CRF2R α receptor [2]): 76.9 nM
EC50[nM] 0% HSA (cAMP, CRF1R-overexpression CHO cells) [3]: > 1000 nM
Emax (%) (cAMP, CRF1R-overexpression CHO cells) [3]: -0.46%
B1: peptide of SEQ ID NO: 167 (peptide)
peptide: Ac-IVLSLD[dV]PIGLK([AEEA-AEEA-γGlu-C18 diacid])QILLEQERQK[Aib]QREQAEKNEQILEQV-NH2
SMILES: CC[C@H](C)[C@H](NC(C)=O)C(=O)N[C@H](C(=O)N[C@@H](CC(C)C)C(=O)N[C@@H](CO)C(=O)N[C@@H](CC(C)C)C(=O)N[C@@H](CC(=O)O)C(=O)N[C@@H](C(=O)N1CCC[C@H]1C(=O)N[C@H](C(=O)NCC(=O)N[C@@H](CC(C)C)C(=O)N[C@@H](CCCCNC(=O)COCCOCCNC(=O)COCCOCCNC(=O)CC[C@H](NC(=O)CCCCCCCCCCCCCCCCC(=O)O)C(=O)O)C(=O)N[C@@H](CCC(N)=O)C(=O)N[C@H](C(=O)N[C@@H](CC(C)C)C(=O)N[C@@H](CC(C)C)C(=O)N[C@@H](CCC(=O)O)C(=O)N[C@@H](CCC(N)=O)C(=O)N[C@@H](CCC(=O)O)C(=O)N[C@@H](CCCNC(=N)N)C(=O)N[C@@H](CCC(N)=O)C(=O)N[C@@H](CCCCN)C(=O)NC(C)(C)C(=O)N[C@@H](CCC(N)=O)C(=O)N[C@@H](CCCNC(=N)N)C(=O)N[C@@H](CCC(=O)O)C(=O)N[C@@H](CCC(N)=O)C(=O)N[C@@H](C)C(=O)N[C@@H](CCC(=O)O)C(=O)N[C@@H](CCCCN)C(=O)N[C@@H](CC(N)=O)C(=O)N[C@@H](CCC(=O)O)C(=O)N[C@@H](CCC(N)=O)C(=O)N[C@H](C(=O)N[C@@H](CC(C)C)C(=O)N[C@@H](CCC(=O)O)C(=O)N[C@@H](CCC(N)=O)C(=O)N[C@H](C(N)=O)C(C)C)[C@@H](C)CC)[C@@H](C)CC)[C@@H](C)CC)C(C)C)C(C)C

EC50 [nM], 0% HSA (cAMP, A7R5 cells) (rat CRF2R α receptor [2]): 2.41 nM
EC50[nM] 0% HSA (cAMP, CRF1R-overexpression CHO cells) [3]: > 1000 nM
Emax (%) (cAMP, CRF1R-overexpression CHO cells) [3]: 26.9%
B2: peptide of SEQ ID NO: 165 (peptide)
peptide: Ac-IVLSLD[dV]PIKLK([AEEA-AEEA-γGlu-C18 diacid])QILLEQARQK[Aib]QREQAEKNEQILEQV-NH2
SMILES: CC[C@H](C)[C@H](NC(C)=O)C(=O)N[C@H](C(=O)N[C@@H](CC(C)C)C(=O)N[C@@H](CO)C(=O)N[C@@H](CC(C)C)C(=O)N[C@@H](CC(=O)O)C(=O)N[C@@H](C(=O)N1CCC[C@H]1C(=O)N[C@H](C(=O)N[C@@H](CCCCN)C(=O)N[C@@H](CC(C)C)C(=O)N[C@@H](CCCCNC(=O)COCCOCCNC(=O)COCCOCCNC(=O)CC[C@H](NC(=O)CCCCCCCCCCCCCCCCC(=O)O)C(=O)O)C(=O)N[C@@H](CCC(N)=O)C(=O)N[C@H](C(=O)N[C@@H](CC(C)C)C(=O)N[C@@H](CC(C)C)C(=O)N[C@@H](CCC(=O)O)C(=O)N[C@@H](CCC(N)=O)C(=O)N[C@@H](C)C(=O)N[C@@H](CCCNC(=N)N)C(=O)N[C@@H](CCC(N)=O)C(=O)N[C@@H](CCCCN)C(=O)NC(C)(C)C(=O)N[C@@H](CCC(N)=O)C(=O)N[C@@H](CCCNC(=N)N)C(=O)N[C@@H](CCC(=O)O)C(=O)N[C@@H](CCC(N)=O)C(=O)N[C@@H](C)C(=O)N[C@@H](CCC(=O)O)C(=O)N[C@@H](CCCCN)C(=O)N[C@@H](CC(N)=O)C(=O)N[C@@H](CCC(=O)O)C(=O)N[C@@H](CCC(N)=O)C(=O)N[C@H](C(=O)N[C@@H](CC(C)C)C(=O)N[C@@H](CCC(=O)O)C(=O)N[C@@H](CCC(N)=O)C(=O)N[C@H](C(N)=O)C(C)C)[C@@H](C)CC)[C@@H](C)CC)[C@@H](C)CC)C(C)C)C(C)C

EC50 [nM], 0% HSA (cAMP, A7R5 cells) (rat CRF2R α receptor [2]): 9.99 nM
EC50[nM] 0% HSA (cAMP, CRF1R-overexpression CHO cells) [3]: > 1000 nM
Emax (%) (cAMP, CRF1R-overexpression CHO cells) [3]: 5.94%
B3: peptide of SEQ ID NO: 166 (peptide)
peptide: Ac-IVLSLD[dV]PIKLK([AEEA-AEEA-γGlu-C18 diacid])QILLEQERQK[Aib]QREQAEKNEQILEQV-NH2
SMILES: CC[C@H](C)[C@H](NC(C)=O)C(=O)N[C@H](C(=O)N[C@@H](CC(C)C)C(=O)N[C@@H](CO)C(=O)N[C@@H](CC(C)C)C(=O)N[C@@H](CC(=O)O)C(=O)N[C@@H](C(=O)N1CCC[C@H]1C(=O)N[C@H](C(=O)N[C@@H](CCCCN)C(=O)N[C@@H](CC(C)C)C(=O)N[C@@H](CCCCNC(=O)COCCOCCNC(=O)COCCOCCNC(=O)CC[C@H](NC(=O)CCCCCCCCCCCCCCCCC(=O)O)C(=O)O)C(=O)N[C@@H](CCC(N)=O)C(=O)N[C@H](C(=O)N[C@@H](CC(C)C)C(=O)N[C@@H](CC(C)C)C(=O)N[C@@H](CCC(=O)O)C(=O)N[C@@H](CCC(N)=O)C(=O)N[C@@H](CCC(=O)O)C(=O)N[C@@H](CCCNC(=N)N)C(=O)N[C@@H](CCC(N)=O)C(=O)N[C@@H](CCCCN)C(=O)NC(C)(C)C(=O)N[C@@H](CCC(N)=O)C(=O)N[C@@H](CCCNC(=N)N)C(=O)N[C@@H](CCC(=O)O)C(=O)N[C@@H](CCC(N)=O)C(=O)N[C@@H](C)C(=O)N[C@@H](CCC(=O)O)C(=O)N[C@@H](CCCCN)C(=O)N[C@@H](CC(N)=O)C(=O)N[C@@H](CCC(=O)O)C(=O)N[C@@H](CCC(N)=O)C(=O)N[C@H](C(=O)N[C@@H](CC(C)C)C(=O)N[C@@H](CCC(=O)O)C(=O)N[C@@H](CCC(N)=O)C(=O)N[C@H](C(N)=O)C(C)C)[C@@H](C)CC)[C@@H](C)CC)[C@@H](C)CC)C(C)C)C(C)C
